In the test the target is Tryptophan synthase β subunit (TrpB) from Streptococcus pneumoniae (Streptococcus pneumoniae TIGR4, UniProt Q97P32 4-407, PLP covalently attached to Lys91). Briefly: crystal structure. The settings on record: both partners purified.

B1: Tryptophan synthase α subunit (TrpA) from Streptococcus pneumoniae (enzyme)
chain: MPKTLTEKLNAIKAAGKGIFVPYIMAGDHEKGLDGLAETIHFLEDLGVSAIEVGIPFSDPVADGPVIEEAGLRSLAHGTSTQALVETLKTIETEIPLVIMTYFNPLFQYGVENFVKDLADTAVKGLIIPDLPHEHANFVEPFLANTDIALIPLVSLTTGIERQKELIEGAEGFIYAVAINGVTGKSGNYRADLDKHLAQLHQVADIPVLTGFGVSSQADLERFNAVSDGVIVGSKIVKALHQGEPIQDFIRQAVAYQK
Turning to B1, the binding result is recorded as “binds”.

(Values after PMC6608616 (IUCrJ, 2019).)
